Data from publication PMC10849647.

Target: pre-translocation ribosomal complex (without L27-tRNA labeling) (UniProt P0AG67)
Assay: co-sedimentation

Substance	ratio of co-sedimented EF-G to ribosomal S1 protein [EF-G per S1]
M5, the F410C-Y533C variant of a cysteineless E. coli EF-G (enzyme)	0.15
T48E mutant of M5 EF-G (enzyme)	0.22
T48V mutant of M5 EF-G (enzyme)	1
